{
  "source": "patent US20040259096A1",
  "about": "“Receptor capture assay” (priority 2001, published 2004)",
  "molecules": {"B1": {"name": "ERE tracer (VER1/VER2) (dsDNA)", "DNA 1": "CAACTTCATCCACGTTCACCGTCCAAAGTCAGGTCACAGTGACCTGATCAAAGTTGTACCTGTCCTTGGCTCTTC", "DNA 2": "GAAGAGCCAAGGACAGGTACAACTTTGATCAGGTCACTGTGACCTGACTTTGGACGGTGAACGTGGATGAAGTTG"}, "B2": {"name": "GRE tracer (BGGR1/BGGR2) (dsDNA)", "DNA 1": "CAACTTCATCCACGTTCACCGCTGTACAGGATGTTCTGCCGTACCTGTCCTTGGCTCTTC", "DNA 2": "GAAGAGCCAAGGACAGGTACGGCAGAACATCCTGTACAGCGGTGAACGTGGATGAAGTTG"}, "B3": {"name": "competitor GRE (TGR1/TGR2) (dsDNA)", "DNA 1": "GCTGTACAGGATGTTCTGCC", "DNA 2": "GGCAGAACATCCTGTACAGC"}, "B4": {"name": "competitor ERE (DX1/DX3) (dsDNA)", "DNA 1": "CTAGAAAGTCAGGTCACAGTGACCTG", "DNA 2": "CAGGTCACTGTGACCTGACTTTCTAG"}},
  "key": {"HIF-1α": {"test_system": "HIF-1α", "test": "Detecting HIF-1α activation in cytosolic extracts of HeLa S3 cells, anti-ARNT capture, real-time PCR", "format": "cell-based, human", "method": "HIF-1 DNA binding activity was induced as follows. Actively dividing HeLa S3 cells were treated with 125 μM CoCl2 for 4 hr at 37° C. Cells were washed 2× in tissue culture dishes with ice cold phosphate-buffered saline (PBS) before harvesting. Cells were pelleted at 420×g for 5 min, washed twice with PBS and resuspended in 5 packed cell volumes of buffer A (10 mM Tris-HCl (pH 7.6), 1.5 mM MgCl2, 10 mM KCl, 1 mM DTT) supplemented with Sigma protease inhibitor cocktail (P 8340, Sigma Chemical Co., St. Louis, Mo.). After incubation on ice for 15 min, cells were pelleted at 450×g for 5 min, resuspended in 2 packed cell volumes of buffer C (0.42 M KCl, 20 mM Tris-HCl (pH 7.6), 20% glycerol, 1.5 MM MgCl2, 1 mM DTT and 0.2 mM EDTA) supplemented with Sigma protease inhibitor cocktail. The cells were disrupted using a Branson Sonifier 450 (Branson Ultrasonics Corp., Danbury, Conn.) fitted with a microtip for two 20-second pulses at a 45% duty cycle. After centrifugation at 20,000×g for 5 min, the supernatant was designated as cytosolic extract. The cytosolic extracts from treated and untreated cells were aliquoted and stored at −80° C. […]\nPrimers PRIHa and PRIHb (0.9 μM final) were added to 2×PCR SYBR® Green Master Mix (Applied Biosystems Cat No. 4309155) and the Master Mix made 1× with Water. […] 50 μl of master mix from each well was transferred to a PCR plate, capped and analyzed by real-time PCR using an Opticon thermocycler (MJ Research, Inc., Watham, Mass.). […]\nIn brief cytosolic extracts prepared from untreated or CoCl2 treated cells were diluted and exposed to nucleic acid-tracer. […] DNA amplification was monitored using real-time PCR. The process takes only a few hours to complete and provides qualitative or quantitative results.\nThe PCR data is typically plotted as a primary growth curve. For quantitative and comparative purposes, a threshold cycle (Ct) is defined for each sample. […] The Ct value is typically calculated near the first cycle where the PCR products are amplified at the greatest rate (no reagent is limiting) and where the amplified product is detectable above background. […]"}, "Estrogen receptor alpha [1]": {"target": "T1, Estrogen receptor alpha (Homo sapiens, UniProt P03372 P03372:1-595)", "T1 sequence (P03372 whole entry, one chain of several)": "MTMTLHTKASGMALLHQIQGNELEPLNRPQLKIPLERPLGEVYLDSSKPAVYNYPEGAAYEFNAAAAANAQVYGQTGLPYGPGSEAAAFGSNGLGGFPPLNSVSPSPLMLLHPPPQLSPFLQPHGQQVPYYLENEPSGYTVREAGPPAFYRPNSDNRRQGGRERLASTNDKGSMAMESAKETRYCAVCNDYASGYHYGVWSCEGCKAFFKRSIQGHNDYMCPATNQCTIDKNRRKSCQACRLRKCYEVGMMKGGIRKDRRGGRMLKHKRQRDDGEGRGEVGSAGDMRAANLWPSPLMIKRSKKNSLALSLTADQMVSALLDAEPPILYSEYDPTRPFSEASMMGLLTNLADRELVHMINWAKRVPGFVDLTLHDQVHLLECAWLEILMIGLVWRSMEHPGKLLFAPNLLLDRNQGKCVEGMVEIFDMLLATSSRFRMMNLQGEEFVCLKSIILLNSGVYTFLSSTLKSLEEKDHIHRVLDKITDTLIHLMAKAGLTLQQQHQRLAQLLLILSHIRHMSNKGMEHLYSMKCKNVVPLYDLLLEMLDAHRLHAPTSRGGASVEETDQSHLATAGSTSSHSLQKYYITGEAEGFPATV", "test": "anti-ER capture PCR; DMSO 137, estradiol […]; 25 mM Tris pH 8.0, 50 mM KCl, 4 C; ligand independent", "settings": "tags: baculovirus expressed, Panvera P2187; chain copies: 2"}, "Glucocorticoid receptor [2]": {"target": "T2, Glucocorticoid receptor (UniProt P04150 P04150:1-777)", "T2 sequence (P04150 whole entry, one chain of several)": "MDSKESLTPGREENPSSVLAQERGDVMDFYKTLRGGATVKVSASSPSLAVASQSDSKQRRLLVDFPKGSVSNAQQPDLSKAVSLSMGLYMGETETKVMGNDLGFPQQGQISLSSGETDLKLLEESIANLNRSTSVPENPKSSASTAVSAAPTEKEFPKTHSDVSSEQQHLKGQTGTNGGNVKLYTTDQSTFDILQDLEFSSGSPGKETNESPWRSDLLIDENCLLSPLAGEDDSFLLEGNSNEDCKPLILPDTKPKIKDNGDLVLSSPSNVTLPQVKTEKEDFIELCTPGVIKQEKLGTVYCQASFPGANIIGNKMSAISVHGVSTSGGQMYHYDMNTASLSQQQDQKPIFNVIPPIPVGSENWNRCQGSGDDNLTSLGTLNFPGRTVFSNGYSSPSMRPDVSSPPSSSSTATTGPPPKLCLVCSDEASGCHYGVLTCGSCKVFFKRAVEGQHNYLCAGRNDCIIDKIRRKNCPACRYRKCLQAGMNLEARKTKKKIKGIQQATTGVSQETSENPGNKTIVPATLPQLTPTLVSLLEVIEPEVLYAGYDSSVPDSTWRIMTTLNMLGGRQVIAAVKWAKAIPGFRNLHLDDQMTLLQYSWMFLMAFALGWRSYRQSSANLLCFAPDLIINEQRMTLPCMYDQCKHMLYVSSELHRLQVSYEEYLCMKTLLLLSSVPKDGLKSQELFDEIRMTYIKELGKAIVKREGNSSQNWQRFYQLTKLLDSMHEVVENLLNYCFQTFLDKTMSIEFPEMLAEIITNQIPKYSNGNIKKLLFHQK", "test": "anti-GR capture PCR; DMSO 82, dexamethasone 68; 25 mM Tris pH 7.9, 60 mM KCl, 4 C; ligand independent", "settings": "tags: baculovirus expressed, Panvera P2187 (so in the source)"}, "Glucocorticoid receptor [3]": {"target": "T2, Glucocorticoid receptor", "test": "competition; 100-fold excess reduces tracer signal 68 to 44", "settings": "tags: baculovirus expressed, Panvera P2187 (so in the source)"}, "Estrogen receptor alpha [4]": {"target": "T1, Estrogen receptor alpha", "test": "competition; 100-fold excess reduces tracer signal 104 to 81", "settings": "tags: baculovirus expressed, Panvera P2187; chain copies: 2"}},
  "data": [
    {"molecule": "[Cl][Co][Cl]", "note": "[CoCl2, cobalt chloride]", "values": [
      {"measurement": "Ct Value", "setting": "HIF-1α; cytosol of treated cells (CoCl2), plus 100x DNA competitor", "value": 22.52},
      {"measurement": "Ct Value", "setting": "HIF-1α; cytosol of treated cells (CoCl2, 4 hr), no DNA competitor, untreated 23.08", "value": 20.47},
      {"measurement": "difference of Ct values, treated versus untreated cytosolic preparations", "setting": "HIF-1α; no DNA competitor", "value": "more than 2.60 units"}
    ]},
    {"molecule": "B1", "values": [
      {"measurement": "binding result", "setting": "Estrogen receptor alpha [1]", "value": "binds"}
    ]},
    {"molecule": "B2", "values": [
      {"measurement": "binding result", "setting": "Glucocorticoid receptor [2]", "value": "binds"}
    ]},
    {"molecule": "B3", "values": [
      {"measurement": "binding result", "setting": "Glucocorticoid receptor [3]", "value": "binds"}
    ]},
    {"molecule": "B4", "values": [
      {"measurement": "binding result", "setting": "Estrogen receptor alpha [4]", "value": "binds"}
    ]}
  ]
}
